Biological target: T1, endothelial protein C receptor (UniProt Q9UNN8)
T1 sequence: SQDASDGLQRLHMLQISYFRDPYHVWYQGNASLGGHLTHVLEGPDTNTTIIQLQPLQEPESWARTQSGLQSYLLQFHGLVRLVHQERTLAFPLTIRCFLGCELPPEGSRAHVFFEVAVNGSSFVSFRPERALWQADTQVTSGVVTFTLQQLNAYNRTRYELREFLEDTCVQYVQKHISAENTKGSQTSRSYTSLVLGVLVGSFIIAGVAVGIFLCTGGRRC

Activated protein C
LPS-induced NF-κB activity (western blot for the active form of NF-κB in lysates of RA monocytes): APC's inhibitory effect on LPS-induced NF-κB activity was almost totally reversed by RCR252, whereas RCR92 had only limited effect
